Experimental data from US20250188188A1 (DIANTHUS THERAPEUTICS OPCO, published 2025).
Positions count from the first letter of the chain named. Names and notes keep the numbering of the source. One block for each binder: values may come before it.

Experiments:
[1] = target: T1, active human C1s purified from human serum (CompTech, Tyler, TX, catalog number A104) (human, UniProt P09871 16-437; P09871 438-688); test: cell-based or functional assay
T1 sequence 1: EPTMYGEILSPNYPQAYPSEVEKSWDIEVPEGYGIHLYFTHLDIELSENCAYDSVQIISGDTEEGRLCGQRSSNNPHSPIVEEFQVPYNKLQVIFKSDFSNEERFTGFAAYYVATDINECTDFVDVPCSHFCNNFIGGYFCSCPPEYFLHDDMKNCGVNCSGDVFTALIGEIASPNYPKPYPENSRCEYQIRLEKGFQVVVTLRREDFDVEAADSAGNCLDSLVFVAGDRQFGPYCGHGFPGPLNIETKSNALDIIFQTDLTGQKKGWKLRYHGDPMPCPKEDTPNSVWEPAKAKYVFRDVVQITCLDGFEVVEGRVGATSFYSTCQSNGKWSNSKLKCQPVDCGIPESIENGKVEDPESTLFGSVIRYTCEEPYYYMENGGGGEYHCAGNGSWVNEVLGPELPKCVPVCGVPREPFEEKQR
T1 sequence 2: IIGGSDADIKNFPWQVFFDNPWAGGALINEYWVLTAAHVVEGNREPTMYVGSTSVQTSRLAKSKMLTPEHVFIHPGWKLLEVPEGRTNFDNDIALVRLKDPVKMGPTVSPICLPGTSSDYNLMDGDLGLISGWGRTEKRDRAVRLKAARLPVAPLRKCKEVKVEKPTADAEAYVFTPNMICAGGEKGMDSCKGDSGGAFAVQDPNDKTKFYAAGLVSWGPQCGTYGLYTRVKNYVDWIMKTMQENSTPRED

[2] = target: T1, active human C1s purified from human …; test: cell-based or functional assay; remark: listed apart in the source
[3] = target: T1, active human C1s purified from human …; test: cell-based or functional assay; remark: listed apart in the source
[4] = target: T1, active human C1s purified from human …; test: cell-based or functional assay; remark: listed apart in the source
[5] = target: T1, active human C1s purified from human …; test: SPR, antibody captured via anti-human Fc, C1s in solution
[6] = target: T1, active human C1s purified from human …; test: cell-based or functional assay; remark: listed apart in the source
[7] = target: T1, active human C1s purified from human …; test: SPR (Biacore 4000), 37 C pH 7.4, antibody captured via goat anti-human antibody, C1s in solution, n=4
Protocol: Binding of MAB39 and MAB9 to Human Active C1s at 37° C./pH 7.4 Measured by Surface Plasmon Resonance. Human active C1s purified from serum was procured from Complement Technologies, Tyler, TX (catalog number A104). Studies to evaluate MAB39 and MAB9 binding to human active C1s at 37° C. were performed on a Biacore 4000 and Biacore T100 (Cytiva, Marlborough, MA), respectively. Goat anti-human antibody (ThermoFisher, Waltham, MA, USA, catalog number H10500) was amine-coupled to a C1 sensor chip (Cytiva, Marlborough, MA, USA, catalog number BR100535). MAB39 was diluted to 6.67 nM and MAB9 was diluted to 10 nM in 50 mM HEPES pH 7.4, 150 mM NaCl, 1.3 mM Ca, 0.02% Tween-20, 1 mg/mL BSA (HBS). MAB39 was captured for 60 seconds to produce surface densities of 200 RU and MAB9 was captured for 30 seconds to produce surface densities of 10 to 20 RU. Human active C1s was tested for binding using a 3-fold titration series in HBS with a maximum concentration of 12.3 nM for MAB39 and 16 nM for MAB9. Data were processed by subtracting responses from a reference surface as well as a buffer injection. The processed data were fitted with a 1:1 interaction model including baseline offset and bulk refractive index shifts in the association phase. Surfaces were regenerated with a 12 second injection of 1/100 dilution of H3PO4 for MAB39 and 12 second injection of 1/50 dilution of H3PO4 for MAB9. Replicate experiments were performed (n=2 for MAB9 and n=4 for MAB39).
Comparison of Binding Affinities of MAB39 and MAB9 to Human Active C1s by Surface Plasmon Resonance. The human active C1s association constant (ka), disassociation constant (kd) and affinity (KD) for MAB39 and MAB9 were determined in separate experiments (Table 17). […] Statistical analysis was performed using paired t-test, with p value of 0.6168.

IC50, inhibition of Wieslab complement classical pathway (C5b-9 ELISA), 1% human serum [1]: 2.6 nM
B1: IgG4-MAB4 (MAB4 in human IgG4 with S228P, L235E and YTE) (antibody, V domains shown)
VH: QVQLVESGGGLVKPGGSLRLSCAASGFTFSDYYMSWIRQAPGKGLEWVSYISRSGSTKYYADSVKGRFTISRDNAKNSLYLQMNSLRAEDTAVYYCARDESQYALDYWGQGTLVTVSS
VL: DIQMTQSPSSLSASVGDRVTITCQASQDISNYLNWYQQKPGKAPKLLIYDASNLETGVPSRFSGSGSGTDFTFTISSLQPEDIATYYCHQYEDYPLTFGGGTKVEIKR
IC50, inhibition of sensitized hRBC lysis in 25% human serum, Donor 1 [2]: 14.9 nM | IC50, inhibition of sensitized hRBC lysis in 25% human serum, Donor 2 [2]: 17.1 nM | IC50, inhibition of sensitized hRBC lysis in 25% human serum, Donor 3 [2]: 6.6 nM | IC50, inhibition of sensitized hRBC lysis in 25% human serum [3]: 17.5 nM | IC50, inhibition of C3b deposition on sensitized hRBCs in 7.5% human serum (flow cytometry), Donor A [4]: 69.2 nM | IC50, inhibition of C3b deposition on sensitized hRBCs in 7.5% human serum (flow cytometry), Donor B (1) [4]: 193 nM | IC50, inhibition of C3b deposition on sensitized hRBCs in 7.5% human serum (flow cytometry), Donor B (2) [4]: 262 nM

Kd [5]: 0.932 nM | koff [5]: 0.000209 s⁻¹ | kon [5]: 224000 M⁻¹ s⁻¹
B2: MAB3 (antibody, V domains shown)
VH: B1 VH with S101T, Q102D, L105F, Y107E
VL: DIQMTQSPSSLSASVGDRVTITCQASQDISNYLNWYQQKPGKAPKLLIYDASNLETGVPSRFSGSGSGTDFTFTISSLQPEDIATYYCKQYEDYPLTFGGGTKVEIK
notes: IgG

IC50 in the RBC lysis assay (FIG. 4C) [6]: 61.2 nM
B3: MAB2 (US20220380483A1) (antibody, V domains shown)
VH: B1 VH with S101T, Q102D
VL: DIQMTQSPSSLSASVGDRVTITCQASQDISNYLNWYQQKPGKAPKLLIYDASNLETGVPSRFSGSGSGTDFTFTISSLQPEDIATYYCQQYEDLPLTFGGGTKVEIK

Kd [5]: 1.22 nM | koff [5]: 0.000223 s⁻¹ | kon [5]: 184000 M⁻¹ s⁻¹
B4: MAB7 (antibody, V domains shown)
VH: B1 VH with S101T, Q102D, L105Y, Y107N
VL: B2 VL with K89Q, T97V
notes: IgG

Kd [5]: 0.95 nM | koff [5]: 0.000255 s⁻¹ | kon [5]: 268000 M⁻¹ s⁻¹
B5: MAB1 (antibody, V domains shown)
VH: B1 VH with E100Q, S101E, Q102D
VL: B2 VL with K89E
notes: 191g-derived clone expressed as IgG in 293 cells

Kd [5]: 1.22 nM | koff [5]: 0.000232 s⁻¹ | kon [5]: 190000 M⁻¹ s⁻¹
B6: MAB4 (antibody, V domains shown)
VH: B1 VH
VL: B2 VL with K89H
notes: The IgG4 YTE form is entered separately as IgG4-MAB4

Kd [5]: 1.83 nM | koff [5]: 0.000215 s⁻¹ | kon [5]: 118000 M⁻¹ s⁻¹
B7: MAB2 (antibody, V domains shown)
VH: B1 VH with S101T, Q102D, A104G, L105W
VL: B2 VL
notes: IgG

Kd [5]: 0.306 nM | koff [5]: 0.000127 s⁻¹ | kon [5]: 414000 M⁻¹ s⁻¹
B8: MAB9 (antibody, V domains shown)
VH: QVQLVESGGGLVKPGGSLRLSCAASGFTFSDYYMSWIRQAPGKGLEWVSYISRSGSTKYYADSVKGRFTISRDNAKNSLYLQMNSLRAEDTAVYYCARDENYALDWWGQGTLVTVSS
VL: B2 VL with K89Q, Q90H
notes: The IgG4 YTE form is entered separately as IgG4-MAB9

Kd [7]: 0.0105 nM | koff [7]: 0.000125 s⁻¹ | kon [7]: 1.19e+07 M⁻¹ s⁻¹
B9: IgG4-MAB39 (MAB39 in human IgG4 with S228P, L235E and YTE) (antibody)
heavy: EVQLVESGGGLVKPGGSLRLSCAASGFTFSDYYMSWIRQAPGKGLEWVSYISRSGSTKYYADSVKGRFTISRDNAKNSLYLQMNSLRAEDTAVYYCARDENYALDWWGQGTLVTVSSASTKGPSVFPLAPCSRSTSESTAALGCLVKDYFPEPVTVSWNSGALTSGVHTFPAVLQSSGLYSLSSVVTVPSSSLGTKTYTCNVDHKPSNTKVDKRVESKYGPPCPPCPAPEFEGGPSVFLFPPKPKDTLYITREPEVTCVVVDVSQEDPEVQFNWYVDGVEVHNAKTKPREEQFNSTYRVVSVLTVLHQDWLNGKEYKCKVSNKGLPSSIEKTISKAKGQPREPQVYTLPPSQEEMTKNQVSLTCLVKGFYPSDIAVEWESNGQPENNYKTTPPVLDSDGSFFLYSRLTVDKSRWQEGNVFSCSVMHEALHNHYTQKSLSLSLG
light: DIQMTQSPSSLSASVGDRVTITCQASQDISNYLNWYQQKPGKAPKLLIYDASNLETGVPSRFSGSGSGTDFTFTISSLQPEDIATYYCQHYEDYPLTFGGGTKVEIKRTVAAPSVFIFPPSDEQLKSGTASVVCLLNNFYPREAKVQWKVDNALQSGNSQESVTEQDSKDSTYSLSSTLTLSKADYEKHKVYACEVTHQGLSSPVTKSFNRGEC
notes: Differs from MAB9 only in the N-terminal VH residue (E instead of Q); also called IgG-MAB39

Kd [5]: 6.39 nM | koff [5]: 0.000737 s⁻¹ | kon [5]: 115000 M⁻¹ s⁻¹
B10: MAB15 (antibody, V domains shown)
VH: QVQLVQSGAEVKKPGASVKVSCKVSGDTLTELSMHWVRQAPGKGLEWMGTFDPEEGETIYAQKFQGRVTMTEDTSTDTAYMELSSLRSEDTAVYYCVTKGLAWLPYYSWGQGTLVTVSS
VL: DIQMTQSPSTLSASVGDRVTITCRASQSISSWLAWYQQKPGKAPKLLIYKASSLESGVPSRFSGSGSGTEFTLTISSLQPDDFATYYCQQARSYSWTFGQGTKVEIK
notes: IgG

Kd [5]: 4.17 nM | koff [5]: 0.000335 s⁻¹ | kon [5]: 80400 M⁻¹ s⁻¹
B11: MAB22 (antibody, V domains shown)
VH: EVQLVESGGGVVRPGGSLRLSCAASGFTFDDYGMSWVRQAPGKGLEWVSGINWEGGSTGYADSVKGRFTISRDNAKNSLYLQMNSLRAEDTALYYCARDEQLGGKYYYYYYMDVWGKGTTVTVSS
VL: DIQMTQSPSSLSASVGDRVTITCRASQGIRNDLGWYQQKPGKAPKRLIYTASNLQSGVPSRFSGSGSGTEFTLTISSLQPEDFATYYCLQYRSHPLTFGGGTKVEIK
notes: IgG

Kd [5]: 6.52 nM | koff [5]: 0.00055 s⁻¹ | kon [5]: 84500 M⁻¹ s⁻¹
B12: MAB26 (antibody, V domains shown)
VH: B11 VH with T69S, K105L, Y106K
VL: B11 VL with Y91T, R92N, S93I, H94Y
notes: IgG

Kd [5]: 6.01 nM | koff [5]: 0.000688 s⁻¹ | kon [5]: 115000 M⁻¹ s⁻¹
B13: MAB30 (antibody, V domains shown)
VH: B11 VH with K105R, Y106H
VL: B11 VL with R92N, S93A, H94Y, T97I
notes: IgG

Kd [5]: 3.49 nM | koff [5]: 0.000328 s⁻¹ | kon [5]: 93900 M⁻¹ s⁻¹
B14: MAB24 (antibody, V domains shown)
VH: B11 VH with K105T, Y106T
VL: B11 VL with Y91T, R92N, S93I, H94Y
notes: IgG

Kd [5]: 5.57 nM | koff [5]: 0.000621 s⁻¹ | kon [5]: 111000 M⁻¹ s⁻¹
B15: MAB25 (antibody, V domains shown)
VH: B11 VH with K105I, Y106K
VL: B11 VL with R92K, S93Q, H94Y
notes: IgG

Kd [5]: 2.89 nM | koff [5]: 0.000409 s⁻¹ | kon [5]: 141000 M⁻¹ s⁻¹
B16: MAB28 (antibody, V domains shown)
VH: B11 VH with T69S, K105L, Y106K
VL: B11 VL with R92H, H94Y, T97R
notes: IgG
